For 3 substances, Km of phosphorylation of GST-tubulin by the CK1 isoform (Michaelis-Menten kinetics, in vitro kinase assay, 32P incorporation, 30 min results are on record in article PMC4061085.

The target of assay [1] is CK1δ KD (kinase domain of CK1δ) (rat) (UniProt Q06486).
In assay [2] the target is CK1ε from human as HIS-tagged fusion protein (human) (UniProt P49674).
The target in assay [3] is CK1δ from rat as GST-tagged fusion protein (rat) (UniProt Q06486).

UniProt P49674, sequence (P49674 whole entry, the tested form may be a part): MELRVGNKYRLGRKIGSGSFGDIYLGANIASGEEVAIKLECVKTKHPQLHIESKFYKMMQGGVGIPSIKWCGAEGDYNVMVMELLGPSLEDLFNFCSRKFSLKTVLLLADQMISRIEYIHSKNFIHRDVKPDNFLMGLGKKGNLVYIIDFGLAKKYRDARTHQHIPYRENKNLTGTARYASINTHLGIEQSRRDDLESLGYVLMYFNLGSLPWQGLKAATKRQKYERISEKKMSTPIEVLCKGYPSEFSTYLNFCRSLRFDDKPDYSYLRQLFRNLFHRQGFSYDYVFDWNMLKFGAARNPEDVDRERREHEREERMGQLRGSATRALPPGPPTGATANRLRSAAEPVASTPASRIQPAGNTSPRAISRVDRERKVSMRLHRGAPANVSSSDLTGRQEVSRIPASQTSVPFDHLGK

Consider “Recombinant human α-tubulin1B (GST-tubulin) (from UniProt P68363 1-451) (natural protein)”, for which the Km of phosphorylation of GST-tubulin by the CK1 isoform (Michaelis-Menten kinetics, in vitro kinase assay, 32P incorporation, 30 min at 30°C) is 0.266 µM in assay [1], 0.329 µM in assay [2] and 0.205 µM in assay [3].
For the substance “Recombinant human α-tubulin4A (GST-tubulin) (from UniProt P68366 1-448) (natural protein)”, the Km of phosphorylation of GST-tubulin by the CK1 isoform (Michaelis-Menten kinetics, in vitro kinase assay, 32P incorporation, 30 min at 30°C) in assay [1] turned out to be 0.438 µM; in assay [2], 0.602 µM; in assay [3], 0.337 µM.
On to “Recombinant human β-tubulin2A (GST-tubulin) (from UniProt Q13885 1-445) (natural protein)”, for which the Km of phosphorylation of GST-tubulin by the CK1 isoform (Michaelis-Menten kinetics, in vitro kinase assay, 32P incorporation, 30 min at 30°C) in assay [1] is 1.47 µM; in assay [2], 1.41 µM; in assay [3], 1.17 µM.
